The text below walks through data of article PMC3267046.

Substrate in this series: O=[N+]([O-])c1cn2c(n1)OC[C@@H](OCc1ccc(OC(F)(F)F)cc1)C2
The series can be described thus: purified protein. The series is classed as biochemical, Nocardia farcinica.

B1: (Nocardia farcinica IFM 10152) (protein)
chain: MRMSSTGEYVPSPSEWIGNQVAQYEASDGAEAGEFDGRPLVILTTVGRKTGALRKTPVMRVEHDGRYAVVASQGGAPTHPAWYFNLVADPRAQLRDKDAVLSVVARELAGPERAEWWERAVRAYPTYQEYQDNTRRLIPVLLLEPGR
A word on the Km: it is the substrate concentration at which the rate is half of its maximum. By kcat is commonly meant the maximal rate divided by the concentration of active sites. As usually defined, the kcat/Km is the second-order rate constant that governs catalysis at low substrate concentration. With B1, the Km came to 21.9 µM, the kcat came to 0.33 ± 0.08 s⁻¹ and the catalytic efficiency (kcat/Km) came out at 16000 ± 2000 M⁻¹ s⁻¹.
